# From doi:10.1101/2020.10.01.322594
# Target: Phaeodactylum tricornutum diaminopimelate decarboxylase (PtLYSA), amino acids 39-476 (Phaeodactylum tricornutum)
# Test: SEC
substance,measurement,value
"Phaeodactylum tricornutum diaminopimelate decarboxylase (PtLYSA), amino acids 39-476 (enzyme)",stoichiometry N,2
